In the supplement of paper PMC10126150:
± gives the standard deviation of the averaged measurements.

These sequences were tested on ATP (assay: switch fluorescence ratio, 500 uM ATP over buffer (Cy3 cluster intensity, sum of 5 cycles each) (fold (ratio)); higher = stronger signal-on switching upon ATP binding; sequences stand for … in TCGTCGGCAGCGTCAGATGTGTATAAGAGACAGTTTTTTTTTTTTTTTTTTTTTTTTT…TC). Settings: aptamer strand: ATP DNA aptamer (quencher-CACCTGGGGGAGTATTGCGGAGGAAGG + anchor), 100 nM annealed; ATP concentration: 500 uM.
How it was run: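 Cy3-labelled switching-strand clusters on a modified Illumina MiSeq flow-cell were annealed to 100 nM quencher-labelled ATP aptamer, imaged in selection buffer, then imaged after 15 min with 500 uM ATP at 22 °C. Five buffer/ATP cycles ran, with NaOH stripping and re-annealing between them. The fluorescence ratio is summed target-cycle over summed buffer-cycle Cy3 intensity per cluster, averaged per switch-domain sequence. Clusters outside 100-1000 RFU were excluded.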
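Note: ATP exposure 15 min at 22 °C before imaging.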

Row | Sequence | switch fluorescence ratio
1 | TAACGCATCG | 0.9887 ± 0.0012
2 | TTTGGAGTT | 1 ± 0.02
3 | TTCTCTATAT | 1.05 ± 0.11
4 | ACCTTCCGGG | 2.37 ± 0.084
5 | TGACACAGTA | 1.26 ± 0.21
6 | CTTCTTTGTG | 0.996 ± 0.018
7 | TCGGCGGTTT | 0.977 ± 0.058
8 | TGTTGGGGTA | 1.03 ± 0.06
9 | TAAATAGCTT | 1.08 ± 0.17
10 | TATTCGTTCT | 0.9985 ± 0.0022
11 | ATTTCAATTA | 1.01 ± 0.065
12 | TTATATCGGG | 0.995 ± 0.016
13 | GGGGCATGGG | 0.995 ± 0.033
14 | TTTTTTGTAG | 1.01 ± 0.016
15 | GGGGAGCGAG | 1.02 ± 0.046
16 | AAGGGGGAGG | 0.982 ± 0.034
17 | AAGGTGAATT | 1.06 ± 0.021
18 | TTTGGGAGTT | 1.05 ± 0.19
19 | CCTATGGGGT | 0.974 ± 0.024
20 | TATGGGATTG | 0.998 ± 0.021
21 | GAGTTACGGC | 1.22 ± 0.26
22 | GTTAGACGGT | 1.02 ± 0.041
23 | AGGAAAGGGC | 0.983 ± 0.034
24 | TGGGGGTTTC | 0.975 ± 0.053
25 | ATCATTATAT | 0.99007 ± 0.00051

Row | Sequence | switch fluorescence ratio
26 | ATAAAATTGG | 0.988 ± 0.034
27 | AATAGGGTCG | 0.975 ± 0.064
28 | CGGAGGGTGT | 0.997 ± 0.033
29 | GCTATATTTG | 1.01 ± 0.013
30 | AAAGAAAGTC | 1.043 ± 0.006
31 | ACCCAGGGCG | 1.44 ± 0.13
32 | TGGAGGGAGG | 1.01 ± 0.023
33 | TTGTAGTATC | 1 ± 0.025
34 | GGTGATCCTG | 0.977 ± 0.028
35 | TGCTGGAGGG | 0.955 ± 0.011
36 | TGGGCAGGAC | 1.41 ± 0.49
37 | GGCGATTTTG | 0.958 ± 0.03
38 | TGTGGGGAAA | 0.993 ± 0.03
39 | GGATGGTGGT | 1.01 ± 0.016
40 | AATCGTGGAA | 1.01 ± 0.019
41 | CAAATTAGGG | 0.971 ± 0.036
42 | ATTGTTAATG | 0.98 ± 0.046
43 | CAAAAAATTA | 1.01 ± 0.031
44 | AACGGTACGG | 1.03 ± 0.045
45 | TTTTAGGTCA | 0.9901 ± 0.0063
46 | GGGGGTAATA | 0.999 ± 0.021
47 | TTATGGGCAG | 1.01 ± 0.029
48 | ACGTCTTAGT | 1 ± 0.021
49 | AATCTAGATT | 1.002 ± 0.003
50 | GGGAAAGGCA | 1.015 ± 0.0076

Row | Sequence | switch fluorescence ratio
51 | GTGTGCTTTG | 0.998 ± 0.048
52 | TTGATTACTC | 1.04 ± 0.051
53 | TTAGGGATAT | 1.22 ± 0.42
54 | AGCTGTCTCA | 0.991 ± 0.017
55 | GGCGTTCTTG | 0.962 ± 0.015
56 | CGTACGTGCA | 1.02 ± 0.032
57 | CTGATGCCGT | 1.08 ± 0.057
58 | TGATAAATTT | 1.01 ± 0.023
59 | GACTATTAGA | 0.9918 ± 0.0057
60 | GTTGGATTGG | 0.996 ± 0.019
61 | GCGGCCGAGG | 1.02 ± 0.041
62 | GATTATCAGA | 0.988 ± 0.027
63 | GGGCTCAGAA | 1.03 ± 0.028
64 | CGTAATTGCC | 1.002 ± 0.008
65 | TGGTCCCCGG | 0.997 ± 0.025
66 | GGAGGAGGCA | 0.997 ± 0.033
67 | GGTCCATGGG | 0.967 ± 0.035
68 | CGAGGCAGCT | 1.16 ± 0.15
69 | AAAGATGAGG | 0.974 ± 0.029
70 | CTCCTGGCCA | 1.13 ± 0.014
71 | TTAATTTTTG | 0.996 ± 0.029
72 | TTTTTCCGTG | 0.9819 ± 0.0037
73 | GATTTTTATC | 1.023 ± 0.0031
74 | GGGGGAGTGG | 0.982 ± 0.054
75 | GAGTGGGGGC | 1.01 ± 0.054

Row | Sequence | switch fluorescence ratio
76 | TTATGGACTG | 1.01 ± 0.079
77 | TTTAGCTGAA | 0.962 ± 0.024
78 | GGGGGTTCGT | 0.98 ± 0.036
79 | TTGGGAGGTT | 0.968 ± 0.025
80 | AGCGGGGCTG | 1.01 ± 0.029
81 | CACTCTGTGT | 1.02 ± 0.026
82 | TAAGCGGGGT | 1.012 ± 0.008
83 | ATGGCAGGAT | 1 ± 0.063
84 | CAGGGGGGTT | 1.09 ± 0.21
85 | ATTTTTCTCG | 0.96 ± 0.041
86 | TCAGTGCTTA | 1.01 ± 0.038
87 | TTGAGATGGT | 0.954 ± 0.017
88 | CCAGGGGCGT | 1.393 ± 0.012
89 | CGGCAGCTGA | 1 ± 0.011
90 | CGATACGATT | 1.06 ± 0.076
91 | GGGTATAATA | 1.01 ± 0.014
92 | ATTGGGAATA | 0.986 ± 0.029
93 | TTTAAATCTT | 1.06 ± 0.022
94 | CGTAGTGAGG | 0.994 ± 0.03
95 | AATGATTGCG | 1 ± 0.039
96 | AAAACTTAGG | 0.978 ± 0.012
97 | ACGACGAAGG | 1.06 ± 0.083
98 | TAGTTTGAAT | 1.01 ± 0.024
99 | TTTTATGTCT | 0.976 ± 0.03
100 | AGTGCGGACA | 1 ± 0.051

Row | Sequence | switch fluorescence ratio
101 | TTGGGACTGT | 0.978 ± 0.054
102 | CCATTAAACT | 1.014 ± 0.008
103 | TTTGGACGGC | 1.04 ± 0.065
104 | GTGGTTAGAA | 0.9841 ± 0.0025
105 | AACGTACAGG | 1.65 ± 0.15
106 | CTTTCAAGGT | 1.006 ± 0.0032
107 | TTGGCGTCGT | 0.995 ± 0.043
108 | GTGTTCTTAT | 1.01 ± 0.011
109 | AGCTGATACT | 2 ± 0.061
110 | TCAGGATTGA | 0.98 ± 0.036
111 | GCAGGGTGGG | 1.02 ± 0.028
112 | CGAAGGGTCC | 0.959 ± 0.031
113 | TTAAGGATAC | 1.15 ± 0.21
114 | TTTGGGAATG | 1.06 ± 0.13
115 | TGAGGGGATG | 0.994 ± 0.023
116 | GGTTTTCTCG | 1.03 ± 0.023
117 | GGTTAAACTT | 1.02 ± 0.012
118 | CTAATGATTG | 0.957 ± 0.027
119 | AGTGTTCGCG | 1 ± 0.015
120 | GCGTACGTAG | 0.998 ± 0.019
121 | GGTTGAACCG | 1.01 ± 0.06
122 | TATATGGTCC | 0.9841 ± 0.0083
123 | ATGGCATAAG | 1.003 ± 0.0044
124 | ACTTTGGTCT | 1.04 ± 0.051
125 | CCGAGAAAAA | 1.12 ± 0.14

Row | Sequence | switch fluorescence ratio
126 | TGGATGCGGG | 1.02 ± 0.032
127 | TCTGCCTTGG | 0.984 ± 0.011
128 | CGGATTGTGT | 1.018 ± 0.0055
129 | GCGCAGGCTT | 0.986 ± 0.022
130 | AGCAGGGTTG | 1.029 ± 0.01
131 | TGAACCTTCA | 2.71 ± 0.14
132 | GTGTTTGGTT | 1.01 ± 0.053
133 | GAGGGAGGCA | 0.994 ± 0.019
134 | CCCTGGCAGC | 1.3 ± 0.019
135 | CACCGACTTT | 1.06 ± 0.0014
136 | TATGTTATTT | 1.02 ± 0.012
137 | GGCAGTGCGG | 1 ± 0.06
138 | TACAGCAGGG | 1.04 ± 0.012
139 | AATCTATCCC | 1.027 ± 0.0042
140 | TGGGAGTTCC | 1.04 ± 0.036
141 | TGTCGGGGTT | 0.9932 ± 0.0083
142 | TCGAAGGGTT | 0.993 ± 0.028
143 | CTCCTTAGTT | 1.05 ± 0.035
144 | ATTCACACGC | 1.06 ± 0.017
145 | TTGTTGTATG | 1.02 ± 0.014
146 | ATTTTATTAC | 1.04 ± 0.028
147 | TTTAGGTTCA | 0.98 ± 0.041
148 | ATGTCCCAAG | 0.99 ± 0.042
149 | GATTTAAAAT | 1.013 ± 0.0083
150 | GAGTGTCAGC | 1 ± 0.035

Row | Sequence | switch fluorescence ratio
151 | GAGTAGGGGA | 0.97 ± 0.055
152 | ATTCGTTACT | 1.03 ± 0.051
153 | CTTATCTCTG | 1.05 ± 0.019
154 | ACGGTATCTT | 1.13 ± 0.019
155 | ATGTGTTGCG | 1 ± 0.045
156 | AAATGAGATT | 1.002 ± 0.0048
157 | GAGGTGGTGC | 0.966 ± 0.072
158 | AGCGGAGAGG | 1.006 ± 0.0096
159 | CAGTTGATGC | 1.01 ± 0.096
160 | GGGTGATTGG | 0.993 ± 0.018
161 | ATGATCGGGT | 1.02 ± 0.031
162 | GGTCTACAGA | 1.02 ± 0.011
163 | TTTGCAGCC | 1.05 ± 0.066
164 | GCGTTTACTT | 1.004 ± 0.0016
165 | TTAATGGCTA | 0.976 ± 0.021
166 | GATAGACGCA | 1.1 ± 0.089
167 | GTTGTTAACT | 0.999 ± 0.048
168 | GCTAATTTGC | 0.98953 ± 0.00037
169 | GCTGGCCGGT | 0.989 ± 0.021
170 | TCGGCGGACA | 1 ± 0.023
171 | TTAAAGGAGG | 1.02 ± 0.044
172 | ATGTGACGCA | 1.13 ± 0.012
173 | CGAAAGATGA | 0.982 ± 0.019
174 | TTGCTGGGCG | 0.995 ± 0.026
175 | TTTGTTTGTA | 1.01 ± 0.017

Row | Sequence | switch fluorescence ratio
176 | GTGCTTGGAA | 0.994 ± 0.033
177 | CATATCACAT | 1.024 ± 0.0062
178 | TAGAGGGGCG | 0.946 ± 0.065
179 | TGGATGGGGG | 0.992 ± 0.022
180 | GCACATGGCA | 1.02 ± 0.015
181 | GGGTTACGAT | 0.994 ± 0.021
182 | GAAGTCCGGT | 0.955 ± 0.024
183 | CGCTCTAAAA | 1.01 ± 0.011
184 | GGTTGCAGAG | 1.01 ± 0.024
185 | GGTTGGAAAG | 0.9919 ± 0.0013
186 | CCACCTTAAG | 1.04 ± 0.033
187 | ATGTCAAAGC | 0.984 ± 0.063
188 | CTAGGGCACA | 1.07 ± 0.1
189 | CAGGTCTTTC | 1.02 ± 0.021
190 | CTATTATGTG | 0.985 ± 0.043
191 | CGGTTGGGGT | 0.989 ± 0.0088
192 | AGGAATTTAG | 1.02 ± 0.03
193 | GGGATTACGG | 0.9899 ± 0.0051
194 | GAAATAGTTT | 1.02 ± 0.021
195 | ACATAGCTTT | 1.03 ± 0.036
196 | GGGTTTGATG | 0.984 ± 0.035
197 | CCTGGGGCTA | 1.25 ± 0.021
198 | AAAGAGTGAA | 0.9989 ± 0.009
199 | GATGTAAACC | 1.01 ± 0.02
200 | GTTGGTCTAT | 0.9778 ± 0.0064
